These results are taken from article PMC4105854.

The data set has as its system DNA gyrase. Nature of the data set: single-molecule T7 transcription elongation rate titrated with gyrase. The note with it: multiple biotin (topologically constrained); not given in the held text.

In turn, “nuoB-N template with multiple biotins (~12 kb)” yielded a Kd of 0.1 µM.

The Kd is the constant that tells how readily two partners part at equilibrium. The low end stands for tighter binding, the high end for weaker binding.
